One series can be described thus: surface FACS. The settings on record: glycan lost.
Series [1] in a line: CD79A-BioID2 proximity labelling, SILAC MS, TMD8. The settings on record: glycan lost; control: DMSO.
A short description of series [2]: IgM-TLR9 proximity ligation assay. The settings on record: glycan lost; control: wild type IgM.
The nature of series [3]: dual-color iSIM, Pearson correlation, TMD8. The settings on record: glycan lost; control: wild type IgM.
A short description of series [4]: dSTORM, Hopkins index and H-function, TMD8. The settings on record: glycan lost; control: untreated / control cells.
Series [5] can be described thus: IgM-LAMP1 proximity ligation assay. The settings on record: glycan lost; control: DMSO.
Series [6] in a line: anti-IgM Fab-pHrodo internalization, flow cytometry. The settings on record: glycan lost; control: DMSO. Background: Flow cytometry measures light scatter and fluorescence of single cells or particles in a stream.

B1: CD79B: N73Q (protein)
parent chain: MARLALSPVPSHWMVALLLLLSAEPVPAARSEDRYRNPKGSACSRIWQSPRFIARKRGFTVKMHCYMNSASGNVSWLWKQEMDENPQQLKLEKGRMEESQNESLATLTIQGIRFEDNGIYFCQQKCNNTSEVYQGCGTELRVMGFSTLAQLKQRNTLKDGIIMIQTLLIILFIIVPIFLLLDKDDSKAGMEEDHTYEGLDIDQTATYEDIVTLRTGEVKWSVGEHPGQE
For B1, the localisation_or_trafficking result in the series “surface FACS” (control: wild type CD79B) is “no change”.

B2: CD79B: N101Q (protein)
parent chain: B1 parent chain
In the case of B2, the localisation_or_trafficking entry in the series “surface FACS” (control: wild type CD79B) is reported as “no change”.

B3: CD79B: triple mutant (N73Q, N101Q, N127Q) (protein)
parent chain: B1 parent chain
In the case of B3, the localisation_or_trafficking entry in “surface FACS” (control: wild type CD79B) is recorded as “no change”.

B4: CD79A: N112Q (protein)
parent chain: MPGGPGVLQALPATIFLLFLLSAVYLGPGCQALWMHKVPASLMVSLGEDAHFQCPHNSSNNANVTWWRVLHGNYTWPPEFLGPGEDPNGTLIIQNVNKSHGGIYVCRVQEGNESYQQSCGTYLRVRQPPPRPFLDMGEGTKNRIITAEGIILLFCAVVPGTLLLFRKRWQNEKLGLDAGDEYEDENLYEGLNLDDCSMYEDISRGLQGTYQDVGSLNIGDVQLEKP
In the case of B4, the localisation_or_trafficking entry in the series “surface FACS” (control: wild type CD79A) was “no change”.

B5: CD79A: NGI-1 (protein)
parent chain: B4 parent chain
For the protein B5, the “other: proximity” value in series [1] is listed as “increases”.

B6: IgM: quadruple mutant (N46Q, N209Q, N272Q, N279Q) (protein)
parent chain: GSASAPTLFPLVSCENSPSDTSSVAVGCLAQDFLPDSITFSWKYKNNSDISSTRGFPSVLRGGKYAATSQVLLPSKDVMQGTDEHVVCKVQHPNGNKEKNVPLPVIAELPPKVSVFVPPRDGFFGNPRKSKLICQATGFSPRQIQVSWLREGKQVGSGVTTDQVQAEAKESGPTTYKVTSTLTIKESDWLGQSMFTCRVDHRGLTFQQNASSMCVPDQDTAIRVFAIPPSFASIFLTKSTKLTCLVTDLTTYDSVTISWTRQNGEAVKTHTNISESHPNATFSAVGEASICEDDWNSGERFTCTVTHTDLPSPLKQTISRPKGVALHRPDVYLLPPAREQLNLRESATITCLVTGFSPADVFVQWMQRGQPLSPEKYVTSAPMPEPQAPGRYFAHSILTVSEEEWNTGETYTCVVAHEALPNRVTERTVDKSTEGEVSADEEGFENLWATASTFIVLFLLSLFYSTTVTLFKVK
B6: in “surface FACS” (control: wild type IgM), the localisation_or_trafficking entry was “no change”.

B7: IgM: N209 mutant (protein)
parent chain: B6 parent chain
In the case of B7, the “other: proximity (My-T-BCR formation)” value in series [2] is “decreases”. Besides, the “other: plasma-membrane colocalisation” value in series [3] is given as “increases”.

B8: IgM: N46 mutant (protein)
parent chain: B6 parent chain
On to B8, for which the “other: proximity (My-T-BCR formation)” value in series [2] is on record as “decreases”. In series [3], the “other: plasma-membrane colocalisation” value is listed as “increases”.

B9: IgM: N209Q (protein)
parent chain: B6 parent chain
In the case of B9, the localisation_or_trafficking result in the series “surface FACS” (control: wild type IgM) was “no change”.

B10: IgM: STT3B knockout (protein)
parent chain: B6 parent chain
For B10, the “other: surface clustering” value in series [4] is on record as “decreases”.

B11: IgM: NGI-1 (protein)
parent chain: B6 parent chain
In the case of B11, the localisation_or_trafficking result in series [5] and in series [6] was “decreases” throughout. For the same protein, the “other: surface clustering” value in series [4] is reported as “decreases”.

(Values after PMC10524254.)
